The test system of this series is COc1ccccc1O. Kind of series: purified protein. The note with it: H2O2 (0.2 mM in methods, ~20 μM in table note), 50 mM sodium phosphate pH 7.0, 20 °C, guaiacol varied 0.08-2.5 mM as printed.

One substance from PMC4057808, “Molecular characterization of Clonorchis sinensis secretory myoglobin: Delineating its role in anti-oxidative survival” (Parasites & Vectors, 2014) can be followed below.

For orientation: Km means the substrate concentration at which the rate is half of its maximum.

For “rCsMb (CsMb, Clonorchis sinensis myoglobin) (Clonorchis sinensis)”, the Km amounted to 81 mM.
